According to the supplement of paper PMC7877785:
± gives the uncertainty stated by the source.

Assay: self-splicing fitness, log relative to wild type (ln ratio); higher = more splicing; Tetrahymena group I intron in knt gene, E. coli kanamycin selection, DiMSum; sequences stand for … in CUCUCU…GGAGGGAAAAGUUAUCAGGCAUGCACCUGGUAGCUAGUCUUUAAACCAAUAGAUUGCAUCGGUUUAAAAGGCAAGACCGUCAAAUUGCGGGAAAGGGGUCAACAGCCGUUCAGUACCAAGUCUCAGGGGAAACUUUGAGAUGGCCUUGCAAAGGGUAUGGUAAUAAGCUGACGGACAUGGUCCUAACCACGCAGCCAAGUCCUAAGUCAACAGAUCUUCUGUUGAUAUGGAUGCAGUUCACAGACUAAAUGUCGGUCGGGGAAGAUGUAUUCUUCUCAUAAGAUAUAGUCGGACCUCUCCUUAAUGGGAGCUAGCGGAUGAAGUGAUGCAACACUGGAGCCGCUGGGAACUAAUUUGUAUGCGAAAGUAUAUUGAUUAGUUUUGGAGUACUCGUGGUCG
How it was run: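 Pooled colonies went to amplicon sequencing on an Illumina HiSeq 2500 after six replicate transformations. The plates were LB agar with 100 μg/mL carbenicillin, 50 μM IPTG and 0.2% rhamnose, with or without 25 μg/mL kanamycin, incubated overnight at 37°C or 30°C. The E. coli BL21(DE3) library had all eight P1ex-region intron nucleotides randomised, the intron placed in the knt kanamycin-resistance gene on pET-22b(+). DiMSum fitness is the error-weighted combination of replicate fold changes, kanamycin against none, normalised to wild type.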

| Sequence | self-splicing fitness (ln) (30 °C) | self-splicing fitness (ln) (37 °C) |
| --- | --- | --- |
| GUAAAGCAAUAUUACGAACG | -0.437 ± 0.077 | -0.132 ± 0.12 |
| CCCGAGCAAUAUUACGUUAU | -3.87 ± 0.21 | -2.62 ± 0.19 |
| CACGAGCAAUAUUACGUGGU | -3.86 ± 0.24 | -2.25 ± 0.18 |
| GUCAAGCAAUAUUACGCUUU | -2.41 ± 0.21 | -1.73 ± 0.16 |
| AACCAGCAAUAUUACGAAAA | -1.54 ± 0.099 | -1.3 ± 0.1 |
| CCUUAGCAAUAUUACGGUGA | -3.63 ± 0.35 | -2.91 ± 0.27 |
| GCGCAGCAAUAUUACGCUCC | -0.982 ± 0.34 | -1.01 ± 0.45 |
| UCUAAGCAAUAUUACGUCAG | -1.23 ± 0.073 | -0.611 ± 0.08 |
| ACAUAGCAAUAUUACGUGGA | -3.3 ± 0.23 | -2.37 ± 0.14 |
| GACUAGCAAUAUUACGACCU | 0.114 ± 0.093 | -0.756 ± 0.095 |
| GGUCAGCAAUAUUACGCCGC | -2.96 ± 0.26 | -2.62 ± 0.36 |
| UGUCAGCAAUAUUACGAAUC | -2.79 ± 0.28 | -1.08 ± 0.22 |
| CUUCAGCAAUAUUACGAUGU | -3.67 ± 0.21 | -2.07 ± 0.2 |
| CAGCAGCAAUAUUACGUGUC | -3.31 ± 0.15 | -2.79 ± 0.18 |
| GAUGAGCAAUAUUACGGCAU | -1.71 ± 0.29 | -1.79 ± 0.39 |
| UUCGAGCAAUAUUACGUGUG | -2.52 ± 0.13 | -1.59 ± 0.12 |
| UAUAAGCAAUAUUACGUAUC | -1.88 ± 0.17 | -2.03 ± 0.19 |
| UCGCAGCAAUAUUACGACGA | -1.67 ± 0.17 | -0.408 ± 0.14 |
| UCUAAGCAAUAUUACGGCCU | -3.76 ± 0.41 |  |
| CGAUAGCAAUAUUACGGUAU | -2.78 ± 0.14 | -1.79 ± 0.17 |
| GGUUAGCAAUAUUACGGACG | 0.908 ± 0.17 | -0.388 ± 0.22 |
| UGCGAGCAAUAUUACGCGGC | -3.44 ± 0.33 | -3.46 ± 0.46 |
| AUCUAGCAAUAUUACGUCAU | -1.41 ± 0.11 | -0.955 ± 0.12 |
| AGCGAGCAAUAUUACGCGUG | -1.48 ± 0.098 | -1.65 ± 0.13 |
| GCAAAGCAAUAUUACGAGGU | -3.56 ± 0.25 | -3.24 ± 0.33 |

| Sequence | self-splicing fitness (ln) (30 °C) | self-splicing fitness (ln) (37 °C) |
| --- | --- | --- |
| AGCGAGCAAUAUUACGAGCG | -1.55 ± 0.14 | -0.201 ± 0.14 |
| CAUAAGCAAUAUUACGGAGU | -3.14 ± 0.15 | -2.35 ± 0.2 |
| GUUUAGCAAUAUUACGCGUC | -1.79 ± 0.24 | -0.647 ± 0.24 |
| ACAUAGCAAUAUUACGUGUU | -4.04 ± 0.17 | -2.87 ± 0.14 |
| GUUUAGCAAUAUUACGCAUC | -1.28 ± 0.14 | -1.04 ± 0.19 |
| ACAAAGCAAUAUUACGAUCG | -0.241 ± 0.074 | 0.193 ± 0.095 |
| AGGAAGCAAUAUUACGCCUC | -2.44 ± 0.44 | -0.418 ± 0.46 |
| UUCUAGCAAUAUUACGGAGG | -3.17 ± 0.34 |  |
| CAUUAGCAAUAUUACGUGUG | -2.91 ± 0.19 | -3.15 ± 0.19 |
| AUUGAGCAAUAUUACGAUAU | -2.76 ± 0.18 | -1.04 ± 0.17 |
| AUGCAGCAAUAUUACGACCU | 0.132 ± 0.082 | 0.168 ± 0.087 |
| UUAAAGCAAUAUUACGUGUG | -0.972 ± 0.045 | -0.4 ± 0.06 |
| GGGUAGCAAUAUUACGCAGG |  | -2.34 ± 0.25 |
| UAUAAGCAAUAUUACGUAGC |  | -2.05 ± 0.36 |
| UCAUAGCAAUAUUACGAGCU | -2.69 ± 0.26 | -2.72 ± 0.3 |
| CAGGAGCAAUAUUACGCAGG | -2.36 ± 0.078 | -1.37 ± 0.076 |
| UGGCAGCAAUAUUACGUCGA | -0.694 ± 0.04 | 0.401 ± 0.058 |
| UGAAAGCAAUAUUACGGGAU | -2.6 ± 0.18 | -3.48 ± 0.39 |
| AGCUAGCAAUAUUACGUGGC |  | -2.27 ± 0.26 |
| CAGUAGCAAUAUUACGUGGG | -3.85 ± 0.29 | -1.92 ± 0.21 |
| AGAAAGCAAUAUUACGAAAU | -1.52 ± 0.1 | -1.91 ± 0.15 |
| CAGUAGCAAUAUUACGUUUC | -3.64 ± 0.3 | -2.69 ± 0.3 |
| GUGUAGCAAUAUUACGCAUG | -2.88 ± 0.27 | -2.67 ± 0.41 |
| UCAAAGCAAUAUUACGCGGC | -3.92 ± 0.3 | -2.59 ± 0.23 |
| GCAUAGCAAUAUUACGAUUA | -1.47 ± 0.18 | 0.017 ± 0.15 |

| Sequence | self-splicing fitness (ln) (30 °C) | self-splicing fitness (ln) (37 °C) |
| --- | --- | --- |
| GCGCAGCAAUAUUACGGUUA | -1.11 ± 0.084 | -0.631 ± 0.08 |
| GCACAGCAAUAUUACGGUCC | -0.798 ± 0.062 | 0.0593 ± 0.082 |
| GGUGAGCAAUAUUACGGCUA | -0.0423 ± 0.12 | 0.0315 ± 0.14 |
| CCCUAGCAAUAUUACGUACA | -2.75 ± 0.19 | -2.87 ± 0.22 |
| AGGUAGCAAUAUUACGGGUU | -2.347 ± 0.017 | -1.72 ± 0.035 |
| GAACAGCAAUAUUACGUAAC | -1.12 ± 0.082 | -0.127 ± 0.1 |
| UUUCAGCAAUAUUACGGUCC | -2.8 ± 0.37 | -0.245 ± 0.35 |
| GUAAAGCAAUAUUACGACAA | -0.153 ± 0.12 | -0.2 ± 0.13 |
| AGAUAGCAAUAUUACGAGGG | -3.73 ± 0.41 | -1.77 ± 0.33 |
| GCGCAGCAAUAUUACGACCG | -1.37 ± 0.18 | -0.215 ± 0.21 |
| UGCAAGCAAUAUUACGGCAG | -0.827 ± 0.078 | -0.0588 ± 0.12 |
| AAGAAGCAAUAUUACGUGUA | -1.85 ± 0.11 | -1.19 ± 0.092 |
| CCGAAGCAAUAUUACGUUGA | -3.76 ± 0.15 | -3.45 ± 0.17 |
| AUUGAGCAAUAUUACGCAGC | -1.85 ± 0.29 | -2.7 ± 0.38 |
| GUAUAGCAAUAUUACGAACG | -1.91 ± 0.32 |  |
| GGAAAGCAAUAUUACGCACC | -1.43 ± 0.21 |  |
| UGCGAGCAAUAUUACGGUAU | -5.17 ± 0.38 | -2.32 ± 0.19 |
| UGAGAGCAAUAUUACGGUCU |  | -2.37 ± 0.36 |
| CAGCAGCAAUAUUACGUUCU | -2.35 ± 0.072 | -1.4 ± 0.081 |
| CGAGAGCAAUAUUACGGGAC | -3.92 ± 0.18 | -1.87 ± 0.16 |
| GAGAAGCAAUAUUACGCCAA | -0.505 ± 0.27 | -2.17 ± 0.22 |
| AAUCAGCAAUAUUACGAGAC | -3.64 ± 0.27 | -0.528 ± 0.12 |
| CAUGAGCAAUAUUACGCGAA | -3.03 ± 0.17 | -1.57 ± 0.15 |
| AUACAGCAAUAUUACGUCUU | -0.218 ± 0.059 | 0.336 ± 0.074 |
| ACGUAGCAAUAUUACGAUCC | -1.03 ± 0.17 | -0.00168 ± 0.18 |

| Sequence | self-splicing fitness (ln) (30 °C) | self-splicing fitness (ln) (37 °C) |
| --- | --- | --- |
| UUCCAGCAAUAUUACGGGAG | -3.38 ± 0.16 | -1.77 ± 0.14 |
| CUCCAGCAAUAUUACGUGCG | -3.63 ± 0.27 | -1.84 ± 0.18 |
| GAUAAGCAAUAUUACGCCCG | -2.05 ± 0.2 | -0.456 ± 0.24 |
| AAUAAGCAAUAUUACGCAAC | -2.79 ± 0.3 | -0.975 ± 0.2 |
| CGCAAGCAAUAUUACGCAAA | -1.92 ± 0.22 | -2.99 ± 0.37 |
| ACCGAGCAAUAUUACGCGGU | -3.02 ± 0.18 | -1.7 ± 0.2 |
| AAAAAGCAAUAUUACGCUUA | -1.36 ± 0.13 | -0.916 ± 0.12 |
| CCGAAGCAAUAUUACGAAUC | -4.12 ± 0.32 | -3.04 ± 0.48 |
| UUUUAGCAAUAUUACGAAGG |  | -1.85 ± 0.41 |
| CACCAGCAAUAUUACGCGGU | -3.67 ± 0.12 | -3.31 ± 0.15 |
| UCCGAGCAAUAUUACGUGAG | -2.83 ± 0.19 | -2.43 ± 0.23 |
| GUCGAGCAAUAUUACGAUAU | -1.44 ± 0.13 | -0.298 ± 0.17 |
| UCCCAGCAAUAUUACGUUAA | -1.89 ± 0.093 | -0.696 ± 0.085 |
| UCUUAGCAAUAUUACGACAC | -2.77 ± 0.46 | -1.65 ± 0.22 |
| AUGCAGCAAUAUUACGUUCA | -1.16 ± 0.11 | -0.74 ± 0.12 |
| GUUAAGCAAUAUUACGUAGG | -1.73 ± 0.1 | -1.16 ± 0.17 |
| GCGGAGCAAUAUUACGACAG | -3.33 ± 0.5 | -1.09 ± 0.45 |
| GUAUAGCAAUAUUACGUCCG | -2.98 ± 0.18 | -1.21 ± 0.17 |
| GACUAGCAAUAUUACGCCCA | -0.026 ± 0.17 | 0.443 ± 0.24 |
| GCAAAGCAAUAUUACGUGUC | -4.47 ± 0.18 | -1.84 ± 0.12 |
| CCGCAGCAAUAUUACGCACC | -3.46 ± 0.23 | -2.05 ± 0.24 |
| GCAUAGCAAUAUUACGCAGU | -4.08 ± 0.17 | -1.81 ± 0.12 |
| CCAAAGCAAUAUUACGACUA | -2.34 ± 0.23 | -2.7 ± 0.29 |
